Values quoted from earlier work as cited in publication PMC3157396, “Molecular Basis for the Recognition of Adenomatous Polyposis Coli by the Discs Large 1 Protein” (PLoS ONE, 2011).

Tested on: PDZ1 and PDZ2 domains of PSD-95
Excerpt: The 3D structures of the three PDZ domains of DLG1 have been determined in the free forms [13]–[15]. They share very similar structures, and the ligand binding pockets are also conserved. […] The residues in the β2/β3 loop ...

change of binding affinity on deletion of six residues from the β2/β3 loops (in words): decreases the binding affinity
B1: Kv1.4 potassium channel: Kv1.4 potassium channel (protein, UniProt P22459 1-653, looked up)
Potassium voltage-gated …: MEVAMVSAESSGCNSHMPYGYAAQARARERERLAHSRAAAAAAVAAATAAVEGSGGSGGGSHHHHQSRGACTSHDPQSSRGSRRRRRQRSEKKKAHYRQSSFPHCSDLMPSGSEEKILRELSEEEEDEEEEEEEEEEGRFYYSEDDHGDECSYTDLLPQDEGGGGYSSVRYSDCCERVVINVSGLRFETQMKTLAQFPETLLGDPEKRTQYFDPLRNEYFFDRNRPSFDAILYYYQSGGRLKRPVNVPFDIFTEEVKFYQLGEEALLKFREDEGFVREEEDRALPENEFKKQIWLLFEYPESSSPARGIAIVSVLVILISIVIFCLETLPEFRDDRDLVMALSAGGHGGLLNDTSAPHLENSGHTIFNDPFFIVETVCIVWFSFEFVVRCFACPSQALFFKNIMNIIDIVSILPYFITLGTDLAQQQGGGNGQQQQAMSFAILRIIRLVRVFRIFKLSRHSKGLQILGHTLRASMRELGLLIFFLFIGVILFSSAVYFAEADEPTTHFQSIPDAFWWAVVTMTTVGYGDMKPITVGGKIVGSLCAIAGVLTIALPVPVIVSNFNYFYHRETENEEQTQLTQNAVSCPYLPSNLLKKFRSSTSSSLGDKSEYLEMEEGVKESLCAKEEKCQGKGDDSETDKNNCSNAKAVETDV
